Experiments:
[1] = tested on: cell growth; test: Comparison of cross-specific antibody to Cetuximab, MTT cell viability; assay type: cell-based; conditions: cell growth assay
Protocol: Antibodies were added to cells at concentration of 20 ug/ml and 40 ug/ml alone and in combination with chemotherapy treatment. Cell viability was assessed 72 hrs after treatment by MTT assay. ** indicates nt P<0.001. * indicates p<0.05.

[2] = tested on: cancer cell proliferation; test: Cancer cell proliferation, cross-specific antibody alone or with cpt11, MTT assay; assay type: cell-based; conditions: 100 nM antibody in combination with 10 μM cpt11; MTT 72 hrs
Protocol: Cells were treated with 100 nM isotype control or 100 nM cross-specific antibody (8d7 1f6 2f7 i.e. “2F7” or 8d7 1f6 2b3 i.e. “2B3” alone or in combination with 10 μM cpt11. Cells were analysed by MTT assay after 72 hrs treatment. ** indicates statistically significant P<0.001. 2B3 RI value is 0.99 therefore an additive effect. 2F7 RI value is 1.1 therefore (slightly) synergistic.
(§1) Cell viability was assessed by 3-(4,5-dimethylthiazol-2-yl)-2,5-diphenyltetrazolium bromide (MTT, Sigma) assay (Mosmann, 1983). To assess chemotherapy/siRNA interactions 5000 cells were seeded per well on 96 well plate. After 24 hours cells were transfected with siRNA and treated with various chemotherapeutic agents at different concentrations. After 48 hours MTT (1.0 mg/ml) was added to each well and cells were incubated at 37° C. for 2 hours. The culture media was removed and formazan crystals were reabsorbed in 200 μl DMSO. Cell viability was determined by reading the absorbance of each well at 570 nm using a microplate reader (Tecan Sunrise, Biorad, UK).

[3] = tested on: pEGFR(Tyr 1068) in LoVo cells; test: Ligand stimulated phosphorylation of EGFR, LoVo; assay type: cell-based; conditions: antibody pre-incubated with recombinant HBEGF 1 hour, 20 mins stimulation
Protocol: Cells were serum starved before addition of antibody and ligand. Cross-specific antibody (8d7 1f6 2f7, i.e. “2F7”) was pre-incubated with recombinant HBEGF for 1 hour before addition to cells. Cells were stimulated for 20 mins before preparation of cell lysates. 30 μg of protein was loaded on SDS-PAGE gel and transferred to nitrocellulose membrane. The membrane was probed with anti pEGFR(Tyr 1068)
(§2) 1.5×10^6 cells were seeded in […] in media containing 10% serum. 24 hrs after seeding cells were serum starved for 4 hrs. Antibodies were preincubated for 1 hour with 30 ng/ml of recombinant HBEGF before being added to cells for 20 mins in 2% serum. Cells were washed 3 times in PBS containing phosphatase inhibitors and scraped. Cells were pelleted and lysed. Protein concentration was determined and 30 ug of protein ran on SDS-PAGE for western blot analysis. Blots were probed with pEGFR(Tyr^1068) antibody.

[4] = tested on: pEGFR(Tyr1068) in MDA-MB231 cells; test: Ligand stimulated phosphorylation of EGFR, MDA-MB231; assay type: cell-based, human; conditions: antibody pre-incubated with recombinant HBEGF 1 hour, 20 mins stimulation
Protocol: (§3) Cells were serum starved before addition of antibody and ligand. Cross-specific antibody (8d7 1f6 2f7, i.e. “2F7”) was pre-incubated with recombinant HBEGF for 1 hour before addition to cells. Cells were stimulated for 20 mins before preparation of cell lysates. 30 μg of protein was loaded on SDS-PAGE gel and transferred to nitrocellulose membrane. The membrane was probed with anti pEGFR(Tyr^1068)
as §2

[5] = tested on: pEGFR(Tyr1068) in HCT116 cells; test: Ligand stimulated phosphorylation of EGFR, HCT116; assay type: cell-based, human; conditions: antibody pre-incubated with recombinant HBEGF 1 hour, 20 mins stimulation
Protocol: as §3, §2

[6] = tested on: colorectal cancer cell line LoVo; test: HBEGF ligand stimulated growth, MTT assay; assay type: cell-based
Protocol: Different concentrations of cross-specific antibody was preincubated with ligand for an hour before addition to cells. Cell viability was assessed 48 hrs after treatment by MTT assay.
as §1

CCc1c2c(nc3ccc(OC(=O)N4CCC(N5CCCCC5)CC4)cc13)-c1cc3c(c(=O)n1C2)COC(=O)[C@]3(O)CC [cpt-11, irinotecan]
IC30 [1]: 5 µM

B1: 8d7 1f6 2f7: cross-specific AREG/HBEGF murine monoclonal antibody; VH Sequence ID No: 7, VL Sequence ID No: 8 (antibody, listed as Mus musculus)
VH: MKCSWIIFFLMAVVTGVNSEVQLQQSGAELVRPGALVKLSCKASGFNIKDSYIHWVNQRPEQGLEWIGWIDPENGNTIYDPKFQGKASITADTSSNTAYLQLSSLTSEDTAVYYCVSASYRYGFSYWGQGTLVTVSAAKTTPPPVYPLAPGSL
VL: MRAPAQFLGLLVLWIPGAIGDIVMTQAAPSVPVTPGESVSISCRSNKSLLHTNGNTYLYWFLQRPGQSPQLLIYRMSNLASGVPDRFSGSGSGTAFTLRISRVEAEDVGVYYCMQHLEYPYTFGGGTKLEIKRADAAPTVSIFPPSSKLG
RI value [2]: 1.1 | inhibition of HBEGF stimulated phosphorylation of EGFR [3]: inhibition of ligand stimulation phosphorylation of EGFR | inhibition of HBEGF stimulated phosphorylation of EGFR [4]: inhibition of ligand stimulation phosphorylation of EGFR | inhibition of HBEGF stimulated phosphorylation of EGFR [5]: inhibition of ligand stimulation phosphorylation of EGFR

B2: 8d7 1f6 2b3: cross-specific AREG/HBEGF murine monoclonal antibody; VH Sequence ID No: 9, VL Sequence ID No: 10 (antibody, listed as Mus musculus)
VH: MKCSWVMFFLMAVVTGVNSEVQLQQSGAELVRPGALVKLSCKASGFNIKDSYIHWVNQRPEQGLEWIGWIDPENGNTIYDPKFQGKASITADTSSNTAYLQLSSLTSEDTAVYYCVSASYRYGFSYWGQGTLVTVSAAKTTPPPVYPLAPGSL
VL: MRPPLSFLGLLVLWIPGAIGDIVMTQAAPSVPVTPGESVSISCRSNKSLLHTNGNTYLYWFLQRPGQSPQLLIYRMSNLASGVPDRFSGSGSGTAFTLRISRVEAEDVGVYYCMQHLEYPYTFGGGTKLEIKRADAAPTVSIFPPSSKLG
RI value [2]: 0.99

B3: 8d7 1c8 1e9: cross-specific AREG/HBEGF murine monoclonal antibody; VH Sequence ID No: 5, VL Sequence ID No: 6 (antibody, listed as Mus musculus)
VH: MEWSWVILFLMAVVTGVNSEVQLQQSGAELVRPGALVKLSCKASGFNIKDSYIHWVNQRPEQGLEWIGWIDPENGNTIYDPKFQGKASITADTSSNTAYLQLSSLTSEDTAVYYCVSASYRYGFSYWGQGTLVTVSAAKTTPPSVYPWVPGSLX
VL: XADXISISCRSNKSLLHTNGNTYLYWFLQRPGQSPQLLIYRMSNLASGVPDRFSGSGSGTAFTLRISRVEAEDVGVYYCMQHLEYPYTFGGGTKLEIKRXX
modifications: not fully specified; (154)..(154) Xaa can be any naturally occurring amino acid; (1)..(1) Xaa can be any naturally occurring amino acid
effect on HBEGF stimulation of cell growth ([6]; 300 nM antibody): prevents any stimulation of cell growth by HBEGF | inhibition of ligand induced growth ([6]; different antibody concentrations pre-incubated with HBEGF 1 hr, MTT 48 hrs): inhibit the ligand induced growth in a dose dependent manner

B4: Recombinant HBEGF: recombinant HBEGF ligand used to stimulate cell growth and EGFR phosphorylation (protein)
chain: DLQEADLDLLRVTLSSKPQALATPNKEEHGKRKKKGKGLGKKRDPCLRKYKDFCIHGECKYVKELRAPSCICHPGYHGERCHGLSL
stimulation of growth ([6]; recombinant HBEGF ligand, MTT 48 hrs): approximately 60%

Reference: patent US8846868B2, “Anti-AREG/HB-EGF antibodies and treatment” (Fusion Antibodies Limited, priority 2008, dated 2014)
